In patent EP2272524A2 one finds EC50, inositol phosphate turnover (potency assay) and IC50 data, which are given here for three substances.

The IC50 is the midpoint of a concentration-inhibition curve.

In assay [1] the target is human Y2 receptor (human) (UniProt P49146). In words: cell-based or functional assay.
The target in assay [2] is human Y4 receptor (human) (UniProt P50391). In words: cell-based or functional assay.
In assay [3] the target is human Y1 receptor (human) (UniProt P25929). In words: cell-based or functional assay.
Chain of UniProt P25929 (P25929 whole entry): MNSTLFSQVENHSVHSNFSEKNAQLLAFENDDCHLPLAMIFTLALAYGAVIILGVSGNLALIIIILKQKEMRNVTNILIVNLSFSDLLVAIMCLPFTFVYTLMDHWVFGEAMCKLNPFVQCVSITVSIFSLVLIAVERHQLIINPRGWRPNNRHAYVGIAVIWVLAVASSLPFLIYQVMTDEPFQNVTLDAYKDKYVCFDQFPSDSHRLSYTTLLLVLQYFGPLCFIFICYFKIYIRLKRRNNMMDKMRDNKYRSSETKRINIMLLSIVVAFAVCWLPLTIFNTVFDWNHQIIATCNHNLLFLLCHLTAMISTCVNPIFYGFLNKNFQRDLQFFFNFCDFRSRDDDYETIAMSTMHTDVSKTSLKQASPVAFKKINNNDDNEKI
Assay [4] addresses human Y5 receptor (human) (UniProt Q15761). Kind of assay: competition binding, displacement of 125I-NPY, COS-7 cells with human Y5. For orientation: In a radioligand displacement assay an active substance lowers the binding of a labelled ligand.
Chain of UniProt Q15761 (Q15761 whole entry): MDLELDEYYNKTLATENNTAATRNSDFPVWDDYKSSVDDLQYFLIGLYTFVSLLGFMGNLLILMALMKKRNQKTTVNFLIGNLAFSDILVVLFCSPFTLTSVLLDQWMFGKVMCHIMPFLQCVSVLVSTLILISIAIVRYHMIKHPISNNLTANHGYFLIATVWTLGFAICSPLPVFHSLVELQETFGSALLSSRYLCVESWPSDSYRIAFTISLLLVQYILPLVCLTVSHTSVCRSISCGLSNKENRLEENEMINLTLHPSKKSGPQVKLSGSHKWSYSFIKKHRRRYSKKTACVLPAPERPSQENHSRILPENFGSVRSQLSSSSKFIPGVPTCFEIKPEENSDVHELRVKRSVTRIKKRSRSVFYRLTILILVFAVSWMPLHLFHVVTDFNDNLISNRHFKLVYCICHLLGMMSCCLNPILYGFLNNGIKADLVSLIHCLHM
Assay [5] concerns the target human Y4 receptor (human) (UniProt P50391). In words: competition binding, displacement of 125I-PP, COS-7 cells with human Y4.
For assay [6], the target named is human Y2 receptor (human) (UniProt P49146). In words: competition binding, displacement of 125I-PYY, COS-7 cells with human Y2.
The target in assay [7] is human Y5 receptor (human) (UniProt Q15761). Kind of assay: cell-based or functional assay.

Chain of UniProt P50391 (P50391 whole entry): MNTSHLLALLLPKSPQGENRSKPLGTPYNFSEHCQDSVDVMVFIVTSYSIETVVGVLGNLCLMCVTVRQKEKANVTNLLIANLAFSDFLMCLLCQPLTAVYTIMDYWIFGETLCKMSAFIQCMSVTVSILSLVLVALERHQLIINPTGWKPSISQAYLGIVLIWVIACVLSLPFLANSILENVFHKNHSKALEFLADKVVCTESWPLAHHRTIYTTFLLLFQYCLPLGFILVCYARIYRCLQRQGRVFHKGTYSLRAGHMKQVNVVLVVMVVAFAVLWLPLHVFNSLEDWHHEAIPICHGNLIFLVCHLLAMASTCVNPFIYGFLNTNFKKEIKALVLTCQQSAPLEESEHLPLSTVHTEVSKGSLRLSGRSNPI
Chain of UniProt P49146 (P49146 whole entry): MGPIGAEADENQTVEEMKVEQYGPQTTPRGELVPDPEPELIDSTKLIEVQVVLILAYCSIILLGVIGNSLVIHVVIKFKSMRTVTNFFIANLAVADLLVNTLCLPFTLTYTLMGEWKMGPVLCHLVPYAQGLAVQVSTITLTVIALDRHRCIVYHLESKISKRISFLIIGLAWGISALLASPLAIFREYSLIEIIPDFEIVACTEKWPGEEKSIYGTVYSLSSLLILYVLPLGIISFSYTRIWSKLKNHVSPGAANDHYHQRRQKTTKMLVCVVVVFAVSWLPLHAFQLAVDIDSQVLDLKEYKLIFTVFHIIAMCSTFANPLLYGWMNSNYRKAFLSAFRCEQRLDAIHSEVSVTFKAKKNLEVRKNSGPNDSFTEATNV

With [Cys2,D-Cys27]PYY2-36 (peptide), the EC50, inositol phosphate turnover (potency assay) in assay [1] is 1.9 nM; in assay [2], more than 1000 nM; in assay [3], more than 1000 nM. Further, the IC50 in assay [4] is 36 nM; in assay [5], 300 nM; in assay [6], 0.6 nM.
For the substance [Cys2,D-Cys27]PYY (peptide), the EC50, inositol phosphate turnover (potency assay) in assay [2] and in assay [3] was more than 1000 nM in each case.
In the case of [Lys4,Gln34]PP (peptide), the EC50, inositol phosphate turnover (potency assay) in assay [1] was found to be 0.17 nM; in assay [7], 3.8 nM; in assay [2], 64 nM; in assay [3], 38 nM. Further, the IC50 in assay [4] came to 0.87 nM; in assay [5], 6 nM; in assay [6], 0.21 nM.
